Source: the supplement of paper PMC12783771
± gives the standard deviation of the averaged measurements.

B1: library; numbered along this chain (parent)
chain: MNIQIGELAKRTACPVVTIRFYEQEGLLPPPGRSRGNFRLYGEEHVERLQFIRHCRSLDMPLSDVRTLLSYRKRPDQDCGEVNMLLDEHIRQVESRIGALLELKHHLVELREACSGARPAQSCGILQGLSDCVCDTRGTTAHPSD

Columns and labels:
[1] = variants of: B1; test: sfGFP reporter fluorescence (15 h) (µM FITC); higher = higher leak; details: library round: Round 0; ligand: none
Procedure, shortened: (§1)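 An Echo normalized PCR-made linear PbrR templates to 5 nM and assembled 1 μL reactions in BL21 Star (DE3) PANOx-SP extract carrying the pPbrR-sfGFP reporter plasmid and 30 μg/mL GamS. Reactions received 1 µM lead chloride, 30 µM zinc acetate or no metal and stood 15 hr at 30 °C. Fluorescence at 485/528 nm (Synergy Neo2) was converted with FITC standard curves made in 50 mM sodium borate pH 8.5. Endpoint sfGFP signal is given in µM FITC, from up to three biological replicates.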

[2] = variants of: B1; test: sfGFP reporter fluorescence (15 h) (µM FITC); higher = stronger transcriptional activation; details: library round: Round 0
Procedure, shortened: as §1

Variant | sfGFP reporter fluorescence [1] | sfGFP reporter fluorescence ([2]; ligand: 1 µM Pb) | sfGFP reporter fluorescence ([2]; ligand: 30 µM Zn)
MNIQIGELAKRTACPVVTIRFYEQEGLLPPPGRSRGNFRLYGEEHVERLQFIRHCRSLDLPLSDVRTLLSYRKRPDQDCGEVNMLLDEHIRQVESRIGALLELVHHLVELREACSGARPAQSCGILQMLSDCVCDTRGTTAHPSD | 0.69 ± 0.028 | 1.46 ± 0.085 | 2.91 ± 0.039
MNIQIGELAKRTACPVVTIRFYEQEGLLPPPGRSRGNFRLYGEEHVERLQFIRHCRSLDLPLSDVRTLLSYRKRPDQDCGEVNMLLDEHIRQVESRIGALLELVHHCVELREACSGARPAQSCGILQGLSDCVCDTRGTTAHPSD | 1.11 ± 0.099 | 3.04 ± 0.88 | 2.76 ± 0.63
MNIQIGELAKRTACPVVTIRFYEQEGLLPPPGRSRGNFRLYGEEHVERLQFIRHCRSLDLPLSDVRTLLSYRKRPDQDCGEVNMLLDEHIRQVESRIGALLELVHHCVELREACSGARPAQSCGILQILSDCVCDTRGTTAHPSD | 1.223 ± 0.006 | 3.59 ± 0.22 | 3.12 ± 0.6
MNIQIGELAKRTACPVVTIRFYEQEGLLPPPGRSRGNFRLYGEEHVERLQFIRHCRSLDLPLSDVRTLLSYRKRPDQDCGEVNMLLDEHIRQVESRIGALLELVHHCVELREACSGARPAQSCGILQMLSDCVCDTRGTTAHPSD | 2.296 ± 0.0044 | 4.53 ± 0.18 | 3.641 ± 0.033
MNIQIGELAKRTACPVVTIRFYEQEGLLPPPGRSRGNFRLYGEEHVERLQFIRHCRSLDLPLSDVRTLLSYRKRPDQDCGEVNMLLDEHIRQVESRIGALLELKHHCVELREACSGARPAQSCGILQGLSDCVCDTRGTTAHPSD | 1.01 ± 0.029 | 1.43 ± 0.057 | 3.93 ± 0.055
MNIQIGELAKRTACPVVTIRFYEQEGLLPPPGRSRGNFRLYGEEHVERLQFIRHCRSLDLPLSDVRTLLSYRKRPDQDCGEVNMLLDEHIRQVESRIGALLELKHHCVELREACSGARPAQSCGILQILSDCVCDTRGTTAHPSD | 2.19 ± 0.17 | 3.42 ± 0.14 | 2.98 ± 0.17
MNIQIGELAKRTACPVVTIRFYEQEGLLPPPGRSRGNFRLYGEEHVERLQFIRHCRSLDLPLSDVRTLLSYRKRPDQDCGEVNMLLDEHIRQVESRIGALLELKHHCVELREACSGARPAQSCGILQMLSDCVCDTRGTTAHPSD | 4.479 ± 0.028 | 4.98 ± 0.62 | 5.22 ± 0.29
